Results published in patent US20250230251A1 (Bristol-Myers Squibb, published 2025).

T1: cyIL-18Rβ-HisAvi (cynomolgus monkey)
T1 construct: Soluble analyte in SPR; also called cyno IL-18Rβ; cynomolgus monkey IL-18Rβ
T1 chain: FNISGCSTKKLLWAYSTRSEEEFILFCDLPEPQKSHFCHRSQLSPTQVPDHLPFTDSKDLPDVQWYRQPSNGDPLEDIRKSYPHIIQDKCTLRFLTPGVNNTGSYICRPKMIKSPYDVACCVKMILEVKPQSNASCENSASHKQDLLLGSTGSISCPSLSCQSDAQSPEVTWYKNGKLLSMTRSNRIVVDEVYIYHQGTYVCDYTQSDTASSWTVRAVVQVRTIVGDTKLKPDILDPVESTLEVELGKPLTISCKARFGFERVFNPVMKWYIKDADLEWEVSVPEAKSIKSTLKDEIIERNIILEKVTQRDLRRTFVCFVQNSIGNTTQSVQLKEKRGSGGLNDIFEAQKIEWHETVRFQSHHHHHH

T2: human IL-18Rβ on cells (human, UniProt O95256 20-599)
T2 sequence: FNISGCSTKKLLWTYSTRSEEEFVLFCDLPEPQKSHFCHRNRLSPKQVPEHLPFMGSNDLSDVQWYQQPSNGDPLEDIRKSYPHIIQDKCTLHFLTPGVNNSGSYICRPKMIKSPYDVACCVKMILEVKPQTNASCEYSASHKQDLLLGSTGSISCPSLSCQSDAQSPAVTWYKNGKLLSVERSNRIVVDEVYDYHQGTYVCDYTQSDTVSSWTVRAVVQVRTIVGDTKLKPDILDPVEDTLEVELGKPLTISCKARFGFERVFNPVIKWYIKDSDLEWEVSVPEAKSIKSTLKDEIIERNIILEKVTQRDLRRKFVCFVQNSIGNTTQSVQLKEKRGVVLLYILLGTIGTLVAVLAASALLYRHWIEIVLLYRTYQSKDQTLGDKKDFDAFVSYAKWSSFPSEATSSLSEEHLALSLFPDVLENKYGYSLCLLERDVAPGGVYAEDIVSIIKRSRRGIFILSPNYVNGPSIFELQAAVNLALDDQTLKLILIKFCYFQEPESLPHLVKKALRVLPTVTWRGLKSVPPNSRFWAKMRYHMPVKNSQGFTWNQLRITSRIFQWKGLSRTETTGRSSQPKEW

T3: IL-18:IL-18Rα complex (human, UniProt Q14116 37-193; Q13478 19-329, limits assumed)
T3 construct: Made by mixing 1.6 uM IL-18 with 100 nM IL-18Ra-Fc-His; also called complexed IL-18: IL-18Rα; not shown: Fc and His tag of the bought fusion protein, not described
T3 sequence (looked up) 1: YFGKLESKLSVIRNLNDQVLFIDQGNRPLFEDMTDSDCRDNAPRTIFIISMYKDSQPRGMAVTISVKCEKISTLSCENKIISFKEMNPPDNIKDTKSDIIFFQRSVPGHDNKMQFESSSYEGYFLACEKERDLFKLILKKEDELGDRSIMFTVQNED
T3 sequence (looked up) 2: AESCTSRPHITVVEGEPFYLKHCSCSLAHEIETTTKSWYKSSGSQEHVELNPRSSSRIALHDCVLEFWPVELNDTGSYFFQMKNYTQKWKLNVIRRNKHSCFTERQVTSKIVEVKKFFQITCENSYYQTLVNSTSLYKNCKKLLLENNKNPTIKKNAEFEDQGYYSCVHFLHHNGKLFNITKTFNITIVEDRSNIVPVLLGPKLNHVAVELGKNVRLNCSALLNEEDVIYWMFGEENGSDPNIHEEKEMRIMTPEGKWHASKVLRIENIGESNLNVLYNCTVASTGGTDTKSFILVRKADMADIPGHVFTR

B1: huIL-18Rβ-HisAvi (receptor)
chain: FNISGCSTKKLLWTYSTRSEEEFVLFCDLPEPQKSHFCHRNRLSPKQVPEHLPFMGSNDLSDVQWYQQPSNGDPLEDIRKSYPHIIQDKCTLHFLTPGVNNSGSYICRPKMIKSPYDVACCVKMILEVKPQTNASCEYSASHKQDLLLGSTGSISCPSLSCQSDAQSPAVTWYKNGKLLSVERSNRIVVDEVYDYHQGTYVCDYTQSDTVSSWTVRAVVQVRTIVGDTKLKPDILDPVEDTLEVELGKPLTISCKARFGFERVFNPVIKWYIKDSDLEWEVSVPEAKSIKSTLKDEIIERNIILEKVTQRDLRRKFVCFVQNSIGNTTQSVQLKEKR
modifications: biotinylated in the Octet blocking assay
notes: Soluble analyte in all SPR runs; captured on streptavidin sensors in the Octet assay; also called human IL-18Rβ; human IL-18Rβ-Avi-His

Key:
cyIL-18Rβ-HisAvi [1] = target: T1, cyIL-18Rβ-HisAvi; experiment: SPR T200, mAb on anti-hFc, 37C, pH 6
huIL-18Rβ-HisAvi [2] = target: B1; experiment: SPR T200, mAb on anti-hFc, 37C, pH 6
huIL-18Rβ-HisAvi [3] = target: B1; experiment: SPR T200, pH 7.4 and pH 6
cyIL-18Rβ-HisAvi [4] = target: T1, cyIL-18Rβ-HisAvi; experiment: SPR T200, mAb on anti-hFc, 37C, pH 7.4
huIL-18Rβ-HisAvi [5] = target: B1; experiment: SPR T200, mAb on anti-hFc, 37C, pH 7.4
human IL-18Rβ on cells = target: T2, human IL-18Rβ on cells; experiment: cell-based or functional assay
IL-18:IL-18Rα complex = target: T3, IL-18:IL-18Rα complex; experiment: Octet RED384 BLI, complex on sensor-captured biotin-hIL-18Rβ-Avi-His after the 50 nM antibody step

Binder	Kd (cyIL-18Rβ-HisAvi [1]) [nM]	koff (cyIL-18Rβ-HisAvi [1]) [s⁻¹]	kon (cyIL-18Rβ-HisAvi [1]) [M⁻¹ s⁻¹]	Kd (huIL-18Rβ-HisAvi [2]) [nM]	koff (huIL-18Rβ-HisAvi [2]) [s⁻¹]	kon (huIL-18Rβ-HisAvi [2]) [M⁻¹ s⁻¹]	fold weaker binding than the parent P20 (huIL-18Rβ-HisAvi [3]) [fold]	Kd (cyIL-18Rβ-HisAvi [4]) [nM]	koff (cyIL-18Rβ-HisAvi [4]) [s⁻¹]	kon (cyIL-18Rβ-HisAvi [4]) [M⁻¹ s⁻¹]	Kd (huIL-18Rβ-HisAvi [5]) [nM]	koff (huIL-18Rβ-HisAvi [5]) [s⁻¹]	kon (huIL-18Rβ-HisAvi [5]) [M⁻¹ s⁻¹]	IC50, LPS+IL-12 dependent IFNg production, human whole blood (human IL-18Rβ on cells) [nM]	fold weaker off-rate and KD than the parent P20 (huIL-18Rβ-HisAvi [3]) [fold]	binding result (IL-18:IL-18Rα complex)
P20-V4 (antibody, human IgG1, kappa, name in Kabat numbering, built from the chains of the parent P20 with the printed mutations) heavy: QVQLQESGPGLVKPSETLSLTCTVSGGSINNYYWSWIRQPPGKGLEWIGYIFYSGTTNYNPSLKSRVTISVDTSKNQFSLKLSSVTAADTAVYYCARDVGIAARNSYYYVMDVWGQGTTVTVSSASTKGPSVFPLAPSSKSTSGGTAALGCLVKDYFPEPVTVSWNSGALTSGVHTFPAVLQSSGLYSLSSVVTVPSSSLGTQTYICNVNHKPSNTKVDKRVEPKSCDKTHTCPPCPAPEAEGAPSVFLFPPKPKDTLMISRTPEVTCVVVDVSHEDPEVKFNWYVDGVEVHNAKTKPREEQYNSTYRVVSVLTVLHQDWLNGKEYKCKVSNKALPAPIEKTISKAKGQPREPQVYTLPPSREEMTKNQVSLTCLVKGFYPSDIAVEWESNGQPENNYKTTPPVLDSDGSFFLYSKLTVDKSRWQQGNVFSCSVMHEALHNHYTQKSLSLSPG light: not shown	42	0.002	48000	14	0.0037	270000	100	88	0.002	23000	42	0.0018	44000	37.6	–	–
P20-V5 (antibody, human IgG1, kappa, name in Kabat numbering, built from the chains of the parent P20 with the printed mutation) heavy: QVQLQQSGPGLVKPSETLSLTCTVSGGSINNYYWSWIRQPPGKGLEWIGYIFYSGTTNYNPSLKSRVTISVDTSKNQFSLKLSSVTAADTAVYYCARDVGIAARNSYYYVMDVWGQGTTVTVSSASTKGPSVFPLAPSSKSTSGGTAALGCLVKDYFPEPVTVSWNSGALTSGVHTFPAVLQSSGLYSLSSVVTVPSSSLGTQTYICNVNHKPSNTKVDKRVEPKSCDKTHTCPPCPAPEAEGAPSVFLFPPKPKDTLMISRTPEVTCVVVDVSHEDPEVKFNWYVDGVEVHNAKTKPREEQYNSTYRVVSVLTVLHQDWLNGKEYKCKVSNKALPAPIEKTISKAKGQPREPQVYTLPPSREEMTKNQVSLTCLVKGFYPSDIAVEWESNGQPENNYKTTPPVLDSDGSFFLYSKLTVDKSRWQQGNVFSCSVMHEALHNHYTQKSLSLSPG light: not shown	5.5	0.00097	180000	1.8	0.00059	340000	–	40	0.0013	34000	19	0.0011	56000	21.2	10	–
B1	–	–	–	–	–	–	–	–	–	–	–	–	–	–	–	binds
